# Laboratory results: the DeepSol protein solubility set
# Assay: soluble on expression in E. coli; label from the status in PepcDB or PDB records
row,Sequence,soluble on expression in E. coli
1,MGVPFIRFLNITFDRRGDELTGVLNFDDKLIGNPFLPAIHGGVTAAFLEVTAVITLSWAHLFERIESGDLAPEDILTDENMRFPKTIDFTIDYLRSGLPRDAYARAYISRAGRRYASVRVEAWQDHHDKLYAQGTGHFLMPLEHHHHHH,soluble
2,MGVSLSKGGNVSLTKEAPGLTAVIVGLGWDVRTTTGTDFDLDASALLTNVEGKVANDQNFVFFNNLKSPDGSVEHTGDNITGEGEGDDEQIKVDLATVPADVDKIVFPVSIYDAENRQQSFGQVRNAFIRVVNQAGGAEIARYDLSEDASTETAMVFGELYRNGPEWKFRAIGQGYASGLRGIAQDFGVNV,not soluble
3,MGVYGMEQNFGLISIIMAAYNAENTIEKAVMSVMAQTYTQFELIIINDCSTDKTLSIIKKFEEFDKRIFLINNSYNRGVSYSRRYGLEKARGEWIAILDSDDAWAADKLEKQIRLQKEKNADLVYTGSAFMDSSGNSIEWYLHVPPEIGYRKLLKQNLISNSSALVRKELYMQYYASGDNMHEDFAIWLRILKTGRKAYGIDEPLLIYRFMRKSKSGNKLIAAKMNWNTYRYIGLDVVSRMYYMIWYMFNGLKKYITLNNEVAKV,not soluble
4,MGYKPTQRDIVIIDFAPSKGYEIRKRRPALVMSKDSYNISTNLVIVCPITSLDKERPFLVPIYSEKLHTSDNAVSKVNTLQVYSLDYTEQAQRRIKYVDTLDEETFYEIAQKFLQNFSFAV,not soluble
5,MGYLHIDGRGMKPNGGSRHNPLEAETIAAWLVAHKDDIERHYGEPLYKVVGVVTPFSAQVNAIKMSLRKLEINGKDEQGLLTVGTVHSLQGAERAIVLFSPVYSKHEDGRFLDSNSTILNVAVSRAKDSFLVFGDMDLIEMQPAFSPRGLLAKYLFSSDNNALQFEFQKRQDLISAHTQISTLHGVEQHDEFLNKTLAGAQKKITIISPWLSWQKVEQTGFLASMALARSRGIDITVVTDKNCNIAHVDDDKRQEKQHLLNDAVEKLNKMGIATKLVNRVHSKIVIEDEELLCVGSFNWFSATREDKYQRYDTSLVYRGEGVKNEIKAIYGSLDQRQLMGHHHHHHSH,not soluble
6,MHERERHRIILSATQEKAVVTVQDIAELTDASEATIRRDIASLHVQGKLRRVRGGAEAVHPPQLGNLAARPFRVSESVNIDKKRAIARKAVDLCNDGDAIILNGGTTTFQMVHYMAARRLQVMTNSFAIAEHLVKHSKCNVNVPGGAIYRDQSLILSPFENDAIRNFYARRIFLGAQGVGALGIMESDALVIQSEQKLMRQAEELIVMVDSSKFRKRSSLILCPLENVTTIITDDGISDEAARMVENAGVELLIAGAVAAGKTAGPPDEENSSSVALEHHHHHH,not soluble
7,MHEWGLSEELKIQTKQMIEIAEKELSIMRNAIDKEDECILCKMEDIHHMLANVQTLAATYYIQAYLSPYTESSSFITTAIQHLSARKHGALIVVERNETLEALIQTGTTLNAHLTAPLLESIFYPGNPLHDGAVLVKNNHIVSAANILPLTKSTEVDPELGTRHRAAIGLSEKSDALILVVSEETGRTSFALNGILYTISL,soluble
8,MHHHHHHANASETNVGPMAPRVCVVGSVNMDLTFVVDALPRPGETVLAASLTRTPGGKGANQAVAAARAGAQVQFSGAFGDDPAAAQLRAHLRANAVGLDRTVTVPGPSGTAIIVVDASAENTVLVAPGANAHLTPVPSAVANCDVLLTQLEIPVATALAAARAAQSADAVVMVNASPAGQDRSSLQDLAAIADVVIANEHEANDWPSPPTHFVITLGVRGARYVGADGVFEVPAPTVTPVDTAGAGDVFAGVLAANWPRNPGSPAERLRALRRACAAGALATLVSGVGDCAPAAAAIDAALRANRHNGS,soluble
9,MHHHHHHHHHGGPISKILVANRSEIAIRVFRAANELGIKTVAIWAEEDKLALHRFKADESYQVGRGPHLARDLGPIESYLSIDEVIRVAKLSGADAIHPGYGLLSESPEFVDACNKAGIIFIGPKADTMRQLGNKVAARNLAISVGVPVVPATEPLPDDMAEVAKMAAAIGYPVMLKASWGGGGRGMRVIRSEADLAKEVTEAKREAMAAFGKDEVYLEKLVERARHVESQILGDTHGNVVHLFERDCSVQRRNQKVVERAPAPYLSEAQRQELAAYSLKIAGATNYIGAGTVEYLMDADTGKFYFIEVNPRIQVEHTVTEVVTGIDIVKAQIHILDGAAIGTPQSGVPNQEDIRLNGHALQCRVTTEDPEHNFIPDYGRITAYRSASGFGIRLDGGTSYSGAIITRYYDPLLVKVTAWAPNPLEAISRMDRALREFRIRGVATNLTFLEAIIGHPKFRDNSYTTRFIDTTPELFQQVKRQDRATKLLTYLADVTVNGHPEAKDRPKPLENAARPVVPYANGNGVKDGTKQLLDTLGPKKFGEWMRNEKRVLLTDTTMRDGHQSLLATRMRTYDIARIAGTYSHALPNLLSLECWGGATFDVSMRFLTEDPWERLALIREGAPNLLLQMLLRGANGVGYTNYPDNVVKYFVRQAAKGGIDLFRVFDCLNWVENMRVSMDAIAEENKLCEAAICYTGDILNSARPKYDLKYYTNLAVELEKAGAHIIAVKDMAGLLKPAAAKVLFKALREATGLPIHFHTHDTSGIAAATVLAAVEAGVDAVDAAMDALSGNTSQPCLGSIVEALSGSERDPGLDPAWIRRISFYWEAVRNQYAAFESDLKGPASEVYLHEMPGGQFTNLKEQARSLGLETRWHQVAQAYADANQMFGDIVKVTPSSKVVGDMALMMVSQDLTVADVVSPDREVSFPESVVSMLKGDLGQPPSGWPEALQKKALKGEKPYTVRPGSLLKEADLDAERKVIEKKLEREVSDFEFASYLMYPKVFTDFALASDTYGPVSVLPTPAYFYGLADGEELFADIEKGKTLVIVNQAVSATDSQGMVTVFFELNGQPRRIKVPDRAHGATGAAVRRKAEPGNAAHVGAPMPGVISRVFVSSGQAVNAGDVLVSIEAMKMETAIHAEKDGTIAEVLVKAGDQIDAKDLLAVYGG,soluble
10,MHHHHHHSSGRENLYFQGFRGTDPGDVVIEELFNRIPQANVRTTSEYMQSAADSLVSTSLWNTGQPFRVESELGERPRTLVRGTVLGQEDPYAYLEATDQETGESFEVHVPYFTERPPSNAIKQMKEEVLRLRLLRGIKNQKQAKVHLRFIFPFDLVKDPQKKKMIRVRLDERDMWVLSRFFLYPRMQSNLQTFGEVLLSHSSTHKSLVHHARLQLTLQVIRLLASLHHYGLVHTYLRPVDIVLDQRGGVFLTGFEHLVRDGASAVSPIGRGFAPPETTAERMLPFGQHHPTLMTFAFDTWTLGLAIYWIWCADLPNTDDAALGGSEWIFRSCKNIPQPVRALLEGFLRYPKEDRLLPLQAMETPEYEQLRTELSAALPLYQTDGEPTREGGAPPSGTSQPDEAGAAEAVTAI,soluble
11,MHHHHHHSSGRENLYFQGIPTISELKKDRIIPHVFPNDKIDLNVDLFISFKAGKEVNHGNVLDIAGTGSVPRNIKFSEEPPDGYCFVLFMVDPDYPSRLRPDGKEYIHWVVSGIKTKELIKGTQKNCVTILPYVGPSIKKGTGLHRISFIISLIKEEDKDNITGLPHYKGEKYITRVKFNNYESVHNIAQINNMKIVGYNWCQIE,soluble
12,MHHHHHHSSGRENLYFQGTGQDALVLGFDWGKFLKDHSYKAAPVSCFKHVPLYDQWEDVMKGMKVEVLNSDAVLPSRVYWIASVIQTAGYRVLLRYEGFENDASHDFWCNLGTVDVHPIGWCAINSKILVPPRTIHAKFTDWKGYLMKRLVGSRTLPVDFHIKMVESMKYPFRQGMRLEVVDKSQVSRTRMAVVDTVIGGRLRLLYEDGDSDDDFWCHMWSPLIHPVGWSRRVGHGIKMSERRSDMAHHPTFRKIYCDAVPYLFKKVRAVYTEGGWFEEGMKLEAIDPLNLGNICVATVCKVLLDGYLMICVDGGPSTDGLDWFCYHASSHAIFPATFCQKNDIELTPPKGYEAQTFNWENYLEKTKSKAAPSRLFNMDCPNHGFKVGMKLEAVDLMEPRLICVATVKRVVHRLLSIHFDGWDSEYDQWVDCESPDIYPVGWCELTGYQLQPPVAAEPATPLKAKEATKKKKKQ,soluble
13,MHHHHHHSSGVDLGTENLYFQSMGFETLVVTSEDGITKIMFNRPKKKNAINTEMYHEIMRALKAASKDDSIITVLTGNGDYYSSGNDLTNFTDIPPGGVEEKAKNNAVLLREFVGCFIDFPKPLIAVVNGPAVGISVTLLGLFDAVYASDRATFHTPFSHLGQSPEGCSSYTFPKIMSPAKATEMLIFGKKLTAGEACAQGLVTEVFPDSTFQKEVWTRLKAFAKLPPNALRISKEVIRKREREKLHAVNAEECNVLQGRWLSDECTNAVVNFLSRKSKL,soluble
